Measured values as given in patent CN110981959A (SHENZHEN PREGENE BIOPHARMACEUTICAL CO LTD, dated 2020).
Positions count from the first letter of the chain named.

B1: CD47单域抗体 SEQ ID NO: 9 (VHH)
VHH: AVKLVESGGGLVQPGGSLRLSCAASGFTVSNNNLRWYRQAPGKERELVAMITSAGNTNYADAVKGRSTISRDNAKNTLYLEMYRLKPEDTAVYYCWGAAHWGRGTQVTVSS
notes: His-tagged sdAb from pSJF2 in E. coli (Ni purification, anti-His detection); also called CD47纳米抗体
B2: CD47单域抗体 SEQ ID NO: 10 (VHH)
VHH: GVKLVESGGGLVQPGGSLTLSCVASGFDFNSAHMRWYRQGPGKEREMVASISTTGGVTIYEDSVKGRFTISRDNADNTAYLRMNSLKPEDTAVYYCRAYGFGIDYWGQGTQVTVSS
notes: as for B1
B3: CD47单域抗体 SEQ ID NO: 1 (VHH)
VHH: DVKLVESGGGLVQPGGSLRLSCAASGFTVSSYSMRWYRQVPGKERELIARITSTGQPIEYGESVKGRFTISRDNAKNTLYLEMNALKPEDTAVYYCWGAGYWGQGTQVTVSS
notes: Expressed from pSJF2 in E. coli, purified on Ni column and detected with anti-His antibody, so it carried a His tag; also called CD47纳米抗体
B4: CD47单域抗体 SEQ ID NO: 8 (VHH)
VHH: B3 VHH with K3Q, V5E, V40A, I48V, Q56E, G61V, K76L, Y80N, A85D
notes: as for B1
B5: CD47单域抗体 SEQ ID NO: 4 (VHH)
VHH: B3 VHH with K3Q, L11S, R19T, S31N, V40A, Q56V, G61A, E62D, A85G, G100A
notes: as for B1
B6: CD47单域抗体 SEQ ID NO: 3 (VHH)
VHH: HVQLEESGGGLVQPGGSLRLSCKASGLTFASYSMRWYRQAPGQERELVARLSSSGVPIEYVDSVKGRFTASRDDAKSTLYLQMNSLKPEDTAMYYCWIANYWGQGTQVTVSS
notes: as for B1
B7: CD47单域抗体 SEQ ID NO: 6 (VHH)
VHH: B6 VHH with H1Q, Q3K, K23A, A30S, S52T, V56E, V61A, D74N, L79V
notes: as for B1
B8: CD47单域抗体 SEQ ID NO: 7 (VHH)
VHH: QVKLEESGGGLVQPGESLRLSCVASGFTFSDAHMRWYRQAPGKEREMVASISTTGSITIYADSVKGRFTISRDNDEKTVYLRMNSLKPEDTAAYYCRAYGFQIDSWGQGTQVTVSS
notes: as for B1
B9: CD47单域抗体 SEQ ID NO: 2 (VHH)
VHH: QVKLEESGGGLVQPGESLRLSCVASGFAFSSALMRWYRQAPGKERELVASITTAGGITGYADSVKGRFTISRDNAENTLYLQMNSLKPEDTAVYYCRAYGFQLDNWGQGTQVTVSS
notes: as for B1
B10: CD47单域抗体 SEQ ID NO: 5 (VHH)
VHH: B9 VHH with Q1G, K3Q, E5V, I51V, A54T, Q82R, Q102G, N105S
notes: as for B1

biological target: CD47抗原 (北京义翘神州, 货号12283-H08H) (UniProt Q08722); test: ELISA of induced culture supernatants on CD47 antigen (clone screening)

| Binder | OD值 over negative control (fold) |
| --- | --- |
| B1 | > 5 fold |
| B2 | > 5 fold |
| B3 | > 5 fold |
| B4 | > 5 fold |
| B5 | > 5 fold |
| B6 | > 5 fold |
| B7 | > 5 fold |
| B8 | > 5 fold |
| B9 | > 5 fold |
| B10 | > 5 fold |

biological target: Human CD47/Biotinylated (human, UniProt Q08722 19-139, limits assumed, biotinylated (site not stated)); test: BLI-type kinetics, biotinylated human CD47 captured on SA probes, antibody at 73.5-588.2 nM
Sequence (Q08722 19-139 limits assumed): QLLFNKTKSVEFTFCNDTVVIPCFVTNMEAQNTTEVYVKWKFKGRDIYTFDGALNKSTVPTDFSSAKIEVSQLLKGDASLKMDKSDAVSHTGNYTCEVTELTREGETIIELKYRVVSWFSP

| Binder | Kd |
| --- | --- |
| B1 | < 1 nM |
| B2 | < 1 nM |
| B3 | < 1 nM |
| B4 | < 1 nM |
| B5 | < 1 nM |
| B6 | < 1 nM |
| B7 | < 1 nM |
| B8 | < 1 nM |
| B9 | < 1 nM |
| B10 | < 1 nM |

biological target: CD47 on HL-60 cells (细胞膜表面表达的CD47抗原) (UniProt Q08722); test: flow cytometry, 20 μg/ml nanobody on HL-60 cells, anti-His staining

| Binder | 结合率 |
| --- | --- |
| B1 | > 99% |
| B2 | > 99% |
| B3 | > 99% |
| B4 | > 99% |
| B5 | > 99% |
| B6 | > 99% |
| B7 | > 99% |
| B8 | > 99% |
| B9 | > 99% |
| B10 | > 99% |
